# T1: HER4 ECD-HRG complex (human, UniProt Q15303 26-651)
# T1 construct: HER4 ECD preincubated with a 5-fold molar excess of Heregulin; also called HER-4-ECD-RG
# T1 sequence 1: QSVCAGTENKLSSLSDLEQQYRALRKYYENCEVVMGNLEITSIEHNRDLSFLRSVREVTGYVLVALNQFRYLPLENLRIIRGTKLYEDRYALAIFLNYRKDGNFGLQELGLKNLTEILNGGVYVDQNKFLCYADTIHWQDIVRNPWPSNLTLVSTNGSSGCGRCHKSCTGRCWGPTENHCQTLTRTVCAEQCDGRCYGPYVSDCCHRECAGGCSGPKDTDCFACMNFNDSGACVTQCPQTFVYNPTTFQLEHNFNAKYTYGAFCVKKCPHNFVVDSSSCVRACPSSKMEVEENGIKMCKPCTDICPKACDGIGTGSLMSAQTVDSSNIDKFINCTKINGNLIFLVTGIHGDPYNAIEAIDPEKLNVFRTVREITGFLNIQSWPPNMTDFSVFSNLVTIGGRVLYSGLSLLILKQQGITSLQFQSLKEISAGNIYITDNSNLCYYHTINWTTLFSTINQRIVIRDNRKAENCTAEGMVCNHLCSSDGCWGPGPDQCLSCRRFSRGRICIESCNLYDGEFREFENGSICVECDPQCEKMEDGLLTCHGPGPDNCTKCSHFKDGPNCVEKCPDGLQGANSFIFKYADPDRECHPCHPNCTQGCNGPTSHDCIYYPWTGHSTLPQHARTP
# T1 sequence 2: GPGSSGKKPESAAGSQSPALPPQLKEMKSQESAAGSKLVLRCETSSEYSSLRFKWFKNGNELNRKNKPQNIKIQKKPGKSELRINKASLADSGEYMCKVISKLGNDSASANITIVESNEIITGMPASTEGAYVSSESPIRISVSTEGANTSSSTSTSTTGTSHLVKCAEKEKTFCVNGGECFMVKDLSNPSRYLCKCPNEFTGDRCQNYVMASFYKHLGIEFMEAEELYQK
# T2: HER4 ECD peptide hairpin, overlapping 15-mer peptides (human)
# T2 construct: also called β-hairpin of HER4
# T2 peptide: PQTFVYNPTTFQLEHNFNA
# B1: humanized variant VH-A/VL-D of anti-HER3 antibody M-05-74 (antibody, V domains shown)
# VH: QVQLVQSGAELKKPGASVKVSCRTSGYTLTDYWIHWVRQAPGQGLEWMGYINPYTGYTESNQKFKDRVAMTRDASINTAYMELTSLRSDDTAVYYCARPYYYGDYWGQGTLVTVSS
# VL: EIVLTQSPATLSLSPGERATLSCSASSSVSYMHWFQQKPGQPPRLLIYSTSNLASGIPARFSGSGSGTDFTLTISSLEPEDFAVYYCQQRSSYPFTFGGGTKVEIK
# notes: also called humanized DIB-74
# B2: M-05-74-Fab-Pseudomonas exotoxin conjugate (M-05-74-PE) (other)
# light: QIVLTQSPAIMSASPGERVTITCSASSSVSYMHWFQQKPGTSPKLLIYSTSNLASGVPARFSGSGSGTSYSLTISRMEAEDAATYYCQQRSSYPFTFGSGTKLEIKRTVAAPSVFIFPPSDEQLKSGTASVVCLLNNFYPREAKVQWKVDNALQSGNSQESVTEQDSKDSTYSLSSTLTLSKADYEKHKVYACEVTHQGLSSPVTKSFNRGEC
# heavy: QVQLQQSGAELAKPGASVKMSCKTSGYTLTDYWIHWVKQRPGQGLEWIGYINPYTGYTESNQKFKDKATLTADKSSNTAYIQLSSLTSEDSAVYYCARPYYYGDYWGQGTTLTVSSASTKGPSVFPLAPSSKSTSGGTAALGCLVKDYFPEPVTVSWNSGALTSGVHTFPAVLQSSGLYSLSSVVTVPSSSLGTQTYICNVNHKPSNTKVDKKVEPKSCGGGSLPETGGGRHRQPRGWEQLYPTGAEFLGDGGAVSFSTRGTQNWTVERLLQAHRQLEEGGYVFVGYHGTFLEAAQSIVFGGVRARSQDLDAIWAGFYIAGDPALAYGYAQDQEPDAAGRIRNGALLRVYVPRSSLPGFYATSLTLAAPEAAGEVERLIGHPLPLRLDAITGPEESGGRLETILGWPLAERTVVIPSAIPTDPRNVGGDLDPSSIPDSEAAISALPDYASQPGKPPREDL
# B3: anti-HER3 antibody M-08-11 (antibody, V domains shown)
# VH: QAYLQQSGAELMRPGASVRMSCQASGYTFTSYTIHWLKQTPRQGLEWIGAIYPRNGDFSYNQKFKDKASLTVDTSSSTAYMHLSSLTSEDSAVYFCARTINYGDWFAYWGQGTLVTVSA
# VL: DIQMIQSPASLFVSEGETVIITCRASENIYSNLAWYHQKKGKSPQVLVYAAIKLADGVPLRFSGSGSGTQFSLKINSLQSEDFGSYYCQHFWGPPYTFGSGTNLEIK
# notes: also called M-011; <Her3> M-08-11
# Key:
# [1] = target: T3, human recombinant HER3 ECD (human, UniProt P21860 20-643); assay: SPR Biacore 3000, 37 C
# T3 construct: 68 kDa; also called human-Her3-ECD; full length Her3 ECD
# [2] = target: T4, HER3 ECD-HRG complex (human, UniProt P21860 20-643); assay: SPR Biacore 3000, 37 C
# T4 construct: also called Heregulin/Her-3 ECD
# [3] = target: T1, HER4 ECD-HRG complex; assay: SPR Biacore 3000, 37 C
# [4] = target: human HER3 (full length, on cells) (human, UniProt P21860 20-1342); assay: cell-based or functional assay
# [5] = target: T2, HER4 ECD peptide hairpin, overlapping …; assay: CelluSpots peptide array
binder,measurement,setting,value
B1,Molar Ratio MR,[1],0.7
same,Molar Ratio MR,[2],0.8
same,Molar Ratio MR,[3],0.8
B2,"EC50 of cell killing of A549 cells, +HRG beta",[4],0.13 µg/mL
same,"EC50 of cell killing of A549 cells, -HRG beta",[4],1.93 µg/mL
B3,binding result,[5],no binding (tested: 1 µg/mL)
